Results on two sequences are retold here after patent US20220313780A1, “METHODS AND COMPOSITIONS FOR TREATING INFLAMMATORY CONDITIONS” (THE SCRIPPS RESEARCH INSTITUTE, priority 2019, published 2022).

The target in the experiment is T1, PAR3 (Homo sapiens, UniProt O00254).
T1 construct: mouse monoclonal antibody to PAR3, clone 19b (clonel9b; 25 μg/mL) for 30 minutes; endogenous in cells; host or cells: THP1-null (wildtype) cells, PMA-differentiated
T1 sequence (O00254 22-374): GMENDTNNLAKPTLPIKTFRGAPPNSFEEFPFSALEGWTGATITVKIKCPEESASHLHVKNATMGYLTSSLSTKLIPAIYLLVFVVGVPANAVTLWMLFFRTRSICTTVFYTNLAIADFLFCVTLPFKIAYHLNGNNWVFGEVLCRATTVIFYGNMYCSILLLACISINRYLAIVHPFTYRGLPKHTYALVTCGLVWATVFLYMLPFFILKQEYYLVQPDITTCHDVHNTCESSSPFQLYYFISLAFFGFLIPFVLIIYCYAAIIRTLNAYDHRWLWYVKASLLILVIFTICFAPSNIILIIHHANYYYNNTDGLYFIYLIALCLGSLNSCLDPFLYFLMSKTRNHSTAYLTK
The experiment can be described thus: Caspase 1 activity assay in THP1 cells after blocking PAR3 with monoclonal antibody clone 19b. Type of experiment: cell-based. To be noted: clone 19b 25 μg/mL for 30 minutes before APC 4 μg/mL, TR47 50 μM or P3R 50 μM. The procedure:
THP1 or (A) NLRP3 deficient cells (THP1-defNLRP3) cells were plated at a final concentration of 1×10^6/mL in 96 well plates and incubated with PMA (0.5 μM) for 3 hours 37° C. in supplemented RPMI. Media was subsequently changed every 24 hours for 3 days. In brief, selected wells were treated with APC (4 μg/mL), TR47 (50 μM) or P3R (50 μM) for 1 hour, washed with DPBS, and incubated with LPS (1 μg/mL) for 3 hours at 37° C. in serum-free RPMI. After a DPBS wash, cells were incubated with ATP (5 mM) in the presence or absence of 10 μM YVAD (caspase 1 inhibitor) or 2.5 μM ZVAD (pan-caspase inhibitor) for 45 minutes at 37° C. […] Again, cells were washed with DPBS and incubated with ATP (5 mM) in the presence or absence of 10 μM YVAD (caspase 1 inhibitor) or 2.5 μM ZVAD (pan-caspase inhibitor) for 45 minutes prior to performing the caspase 1 activity following manufacturer's directions measuring luminescence. […] After a DPBS wash, cells were incubated with ATP (5 mM) in the presence or absence of 10 μM YVAD (caspase 1 inhibitor) or 2.5 μM ZVAD (pan-caspase inhibitor) for 45 minutes at 37° C., prior to performing the caspase 1 activity assay following manufacturer's directions measuring luminescence (relative luminescent units, RLU). […]

Consider “GAPPNSFEEFPFSALEGWTGATIT [P3R, PAR3-derived 24-mer peptide]”, for which the “effect of blocking PAR3 on anti-inflammatory activity (caspase 1)” value is given as “very significantly reduced the anti-inflammatory activity”. Consider “NPNDKYEPFWEDEEKNESGL [TR47, PAR1-derived 20 amino acid peptide]”, for which the “effect of blocking PAR3 on anti-inflammatory activity (caspase 1)” value is “less significantly reduced the activity”.
